Measured values taken from publication PMC7699580, “Transmembrane Polar Relay Drives the Allosteric Regulation for ABCG5/G8 Sterol Transporter” (International Journal of Molecular Sciences, 2020).

B1: ABCG5/G8 (Homo sapiens) (protein)
chain 1: MGDLSSLTPGGSMGLQVNRGSQSSLEGAPATAPEPHSLGILHASYSVSHRVRPWWDITSCRQQWTRQILKDVSLYVESGQIMCILGSSGSGKTTLLDAMSGRLGRAGTFLGEVYVNGRALRREQFQDCFSYVLQSDTLLSSLTVRETLHYTALLAIRRGNPGSFQKKVEAVMAELSLSHVADRLIGNYSLGGISTGERRRVSIAAQLLQDPKVMLFDEPTTGLDCMTANQIVVLLVELARRNRIVVLTIHQPRSELFQLFDKIAILSFGELIFCGTPAEMLDFFNDCGYPCPEHSNPFDFYMDLTSVDTQSKEREIETSKRVQMIESAYKKSAICHKTLKNIERMKHLKTLPMVPFKTKDSPGVFSKLGVLLRRVTRNLVRNKLAVITRLLQNLIMGLFLLFFVLRVRSNVLKGAIQDRVGLLYQFVGATPYTGMLNAVNLFPVLRAVSDQESQDGLYQKWQMMLAYALHVLPFSVVATMIFSSVCYWTLGLHPEVARFGYFSAALLAPHLIGEFLTLVLLGIVQNPNIVNSVVALLSIAGVLVGSGFLRNIQEMPIPFKIISYFTFQKYCSEILVVNEFYGLNFTCGSSNVSVTTNPMCAFTQGIQFIEKTCPGATSRFTMNFLILYSFIPALVILGIVVFKIRDHLISR
chain 2: MAGKAAEERGLPKGATPQDTSGLQDRLFSSESDNSLYFTYSGQPNTLEVRDLNYQVDLASQVPWFEQLAQFKMPWTSPSCQNSCELGIQNLSFKVRSGQMLAIIGSSGCGRASLLDVITGRGHGGKIKSGQIWINGQPSSPQLVRKCVAHVRQHNQLLPNLTVRETLAFIAQMRLPRTFSQAQRDKRVEDVIAELRLRQCADTRVGNMYVRGLSGGERRRVSIGVQLLWNPGILILDEPTSGLDSFTAHNLVKTLSRLAKGNRLVLISLHQPRSDIFRLFDLVLLMTSGTPIYLGAAQHMVQYFTAIGYPCPRYSNPADFYVDLTSIDRRSREQELATREKAQSLAALFLEKVRDLDDFLWKAETKDLDEDTCVESSVTPLDTNCLPSPTKMPGAVQQFTTLIRRQISNDFRDLPTLLIHGAEACLMSMTIGFLYFGHGSIQLSFMDTAALLFMIGALIPFNVILDVISKCYSERAMLYYELEDGLYTTGPYFFAKILGELPEHCAYIIIYGMPTYWLANLRPGLQPFLLHFLLVWLVVFCCRIMALAAAALLPTFHMASFFSNALYNSFYLAGGFMINLSSLWTVPAWISKVSFLRWCFEGLMKIQFSRRTYKMPLGNLTIAVSGDKILSVMELDSYPLYAIYLIVIGLSGGFMVLYYVSLRFIKQKPSQDW
notes: full-length heterodimer; ABCG5 C-terminal His6GlyHis6, ABCG8 C-terminal 3C site and CBP (CBP tag and N-glycans kept); Pichia pastoris KM71H; DDM-purified
B2: ABCG5/G8 (Homo sapiens; Q9H221:R543S) (protein)
chain 1: MGDLSSLTPGGSMGLQVNRGSQSSLEGAPATAPEPHSLGILHASYSVSHRVRPWWDITSCRQQWTRQILKDVSLYVESGQIMCILGSSGSGKTTLLDAMSGRLGRAGTFLGEVYVNGRALRREQFQDCFSYVLQSDTLLSSLTVRETLHYTALLAIRRGNPGSFQKKVEAVMAELSLSHVADRLIGNYSLGGISTGERRRVSIAAQLLQDPKVMLFDEPTTGLDCMTANQIVVLLVELARRNRIVVLTIHQPRSELFQLFDKIAILSFGELIFCGTPAEMLDFFNDCGYPCPEHSNPFDFYMDLTSVDTQSKEREIETSKRVQMIESAYKKSAICHKTLKNIERMKHLKTLPMVPFKTKDSPGVFSKLGVLLRRVTRNLVRNKLAVITRLLQNLIMGLFLLFFVLRVRSNVLKGAIQDRVGLLYQFVGATPYTGMLNAVNLFPVLRAVSDQESQDGLYQKWQMMLAYALHVLPFSVVATMIFSSVCYWTLGLHPEVARFGYFSAALLAPHLIGEFLTLVLLGIVQNPNIVNSVVALLSIAGVLVGSGFLRNIQEMPIPFKIISYFTFQKYCSEILVVNEFYGLNFTCGSSNVSVTTNPMCAFTQGIQFIEKTCPGATSRFTMNFLILYSFIPALVILGIVVFKIRDHLISR
chain 2: MAGKAAEERGLPKGATPQDTSGLQDRLFSSESDNSLYFTYSGQPNTLEVRDLNYQVDLASQVPWFEQLAQFKMPWTSPSCQNSCELGIQNLSFKVRSGQMLAIIGSSGCGRASLLDVITGRGHGGKIKSGQIWINGQPSSPQLVRKCVAHVRQHNQLLPNLTVRETLAFIAQMRLPRTFSQAQRDKRVEDVIAELRLRQCADTRVGNMYVRGLSGGERRRVSIGVQLLWNPGILILDEPTSGLDSFTAHNLVKTLSRLAKGNRLVLISLHQPRSDIFRLFDLVLLMTSGTPIYLGAAQHMVQYFTAIGYPCPRYSNPADFYVDLTSIDRRSREQELATREKAQSLAALFLEKVRDLDDFLWKAETKDLDEDTCVESSVTPLDTNCLPSPTKMPGAVQQFTTLIRRQISNDFRDLPTLLIHGAEACLMSMTIGFLYFGHGSIQLSFMDTAALLFMIGALIPFNVILDVISKCYSERAMLYYELEDGLYTTGPYFFAKILGELPEHCAYIIIYGMPTYWLANLRPGLQPFLLHFLLVWLVVFCCSIMALAAAALLPTFHMASFFSNALYNSFYLAGGFMINLSSLWTVPAWISKVSFLRWCFEGLMKIQFSRRTYKMPLGNLTIAVSGDKILSVMELDSYPLYAIYLIVIGLSGGFMVLYYVSLRFIKQKPSQDW
notes: as for B1
B3: ABCG5/G8 (Homo sapiens; Q9H222:E146Q) (protein)
chain 1: MGDLSSLTPGGSMGLQVNRGSQSSLEGAPATAPEPHSLGILHASYSVSHRVRPWWDITSCRQQWTRQILKDVSLYVESGQIMCILGSSGSGKTTLLDAMSGRLGRAGTFLGEVYVNGRALRREQFQDCFSYVLQSDTLLSSLTVRQTLHYTALLAIRRGNPGSFQKKVEAVMAELSLSHVADRLIGNYSLGGISTGERRRVSIAAQLLQDPKVMLFDEPTTGLDCMTANQIVVLLVELARRNRIVVLTIHQPRSELFQLFDKIAILSFGELIFCGTPAEMLDFFNDCGYPCPEHSNPFDFYMDLTSVDTQSKEREIETSKRVQMIESAYKKSAICHKTLKNIERMKHLKTLPMVPFKTKDSPGVFSKLGVLLRRVTRNLVRNKLAVITRLLQNLIMGLFLLFFVLRVRSNVLKGAIQDRVGLLYQFVGATPYTGMLNAVNLFPVLRAVSDQESQDGLYQKWQMMLAYALHVLPFSVVATMIFSSVCYWTLGLHPEVARFGYFSAALLAPHLIGEFLTLVLLGIVQNPNIVNSVVALLSIAGVLVGSGFLRNIQEMPIPFKIISYFTFQKYCSEILVVNEFYGLNFTCGSSNVSVTTNPMCAFTQGIQFIEKTCPGATSRFTMNFLILYSFIPALVILGIVVFKIRDHLISR
chain 2: MAGKAAEERGLPKGATPQDTSGLQDRLFSSESDNSLYFTYSGQPNTLEVRDLNYQVDLASQVPWFEQLAQFKMPWTSPSCQNSCELGIQNLSFKVRSGQMLAIIGSSGCGRASLLDVITGRGHGGKIKSGQIWINGQPSSPQLVRKCVAHVRQHNQLLPNLTVRETLAFIAQMRLPRTFSQAQRDKRVEDVIAELRLRQCADTRVGNMYVRGLSGGERRRVSIGVQLLWNPGILILDEPTSGLDSFTAHNLVKTLSRLAKGNRLVLISLHQPRSDIFRLFDLVLLMTSGTPIYLGAAQHMVQYFTAIGYPCPRYSNPADFYVDLTSIDRRSREQELATREKAQSLAALFLEKVRDLDDFLWKAETKDLDEDTCVESSVTPLDTNCLPSPTKMPGAVQQFTTLIRRQISNDFRDLPTLLIHGAEACLMSMTIGFLYFGHGSIQLSFMDTAALLFMIGALIPFNVILDVISKCYSERAMLYYELEDGLYTTGPYFFAKILGELPEHCAYIIIYGMPTYWLANLRPGLQPFLLHFLLVWLVVFCCRIMALAAAALLPTFHMASFFSNALYNSFYLAGGFMINLSSLWTVPAWISKVSFLRWCFEGLMKIQFSRRTYKMPLGNLTIAVSGDKILSVMELDSYPLYAIYLIVIGLSGGFMVLYYVSLRFIKQKPSQDW
notes: as for B1
B4: ABCG5/G8 (Homo sapiens; Q9H222:A540F) (protein)
chain 1: MGDLSSLTPGGSMGLQVNRGSQSSLEGAPATAPEPHSLGILHASYSVSHRVRPWWDITSCRQQWTRQILKDVSLYVESGQIMCILGSSGSGKTTLLDAMSGRLGRAGTFLGEVYVNGRALRREQFQDCFSYVLQSDTLLSSLTVRETLHYTALLAIRRGNPGSFQKKVEAVMAELSLSHVADRLIGNYSLGGISTGERRRVSIAAQLLQDPKVMLFDEPTTGLDCMTANQIVVLLVELARRNRIVVLTIHQPRSELFQLFDKIAILSFGELIFCGTPAEMLDFFNDCGYPCPEHSNPFDFYMDLTSVDTQSKEREIETSKRVQMIESAYKKSAICHKTLKNIERMKHLKTLPMVPFKTKDSPGVFSKLGVLLRRVTRNLVRNKLAVITRLLQNLIMGLFLLFFVLRVRSNVLKGAIQDRVGLLYQFVGATPYTGMLNAVNLFPVLRAVSDQESQDGLYQKWQMMLAYALHVLPFSVVATMIFSSVCYWTLGLHPEVARFGYFSAALLAPHLIGEFLTLVLLGIVQNPNIVNSVVALLSIFGVLVGSGFLRNIQEMPIPFKIISYFTFQKYCSEILVVNEFYGLNFTCGSSNVSVTTNPMCAFTQGIQFIEKTCPGATSRFTMNFLILYSFIPALVILGIVVFKIRDHLISR
chain 2: MAGKAAEERGLPKGATPQDTSGLQDRLFSSESDNSLYFTYSGQPNTLEVRDLNYQVDLASQVPWFEQLAQFKMPWTSPSCQNSCELGIQNLSFKVRSGQMLAIIGSSGCGRASLLDVITGRGHGGKIKSGQIWINGQPSSPQLVRKCVAHVRQHNQLLPNLTVRETLAFIAQMRLPRTFSQAQRDKRVEDVIAELRLRQCADTRVGNMYVRGLSGGERRRVSIGVQLLWNPGILILDEPTSGLDSFTAHNLVKTLSRLAKGNRLVLISLHQPRSDIFRLFDLVLLMTSGTPIYLGAAQHMVQYFTAIGYPCPRYSNPADFYVDLTSIDRRSREQELATREKAQSLAALFLEKVRDLDDFLWKAETKDLDEDTCVESSVTPLDTNCLPSPTKMPGAVQQFTTLIRRQISNDFRDLPTLLIHGAEACLMSMTIGFLYFGHGSIQLSFMDTAALLFMIGALIPFNVILDVISKCYSERAMLYYELEDGLYTTGPYFFAKILGELPEHCAYIIIYGMPTYWLANLRPGLQPFLLHFLLVWLVVFCCRIMALAAAALLPTFHMASFFSNALYNSFYLAGGFMINLSSLWTVPAWISKVSFLRWCFEGLMKIQFSRRTYKMPLGNLTIAVSGDKILSVMELDSYPLYAIYLIVIGLSGGFMVLYYVSLRFIKQKPSQDW
notes: as for B1

substrate: Nc1ncnc2c1ncn2[C@@H]1O[C@H](COP(=O)(O)OP(=O)(O)OP(=O)(O)O)[C@@H](O)[C@H]1O; experiment: colorimetric bismuth citrate phosphate-release ATPase assay; assay type: biochemical, Homo sapiens; settings: E. coli polar lipids, 1.5% sodium cholate, 4.1 mM CHS, Mg2+, 0.1% DDM, pH 7.5, 37 °C
Excerpt: colorimetric bismuth citrate phosphate-release ATPase assay on ABCG5/G8

B1 and B2 are within 1.5-fold of each other in Km: 600 ± 70 µM for the first, 420 ± 40 µM for the second.

B3 and B4 are within error of each other in Km: 510 ± 50 µM for the first, 580 ± 80 µM for the second.

Compared with B1, B2 is lower in Vmax: 0.677 µmol/min/mg for the first, 0.151 µmol/min/mg for the second.

Going from B3 to B4, the Vmax falls from 0.167 µmol/min/mg to 0.101 µmol/min/mg.

First: B1
Second: B2
The kcat of the first is 4.4-fold higher: 1.69 ± 0.06 s⁻¹ for the first, 0.38 ± 0.01 s⁻¹ for the second.

First: B3
Second: B4
The kcat of the first is 1.6-fold higher: 0.41 s⁻¹ for the first, 0.25 ± 0.01 s⁻¹ for the second.

Going from B1 to B2, the kcat/Km falls from 2800 M⁻¹ s⁻¹ to 900 M⁻¹ s⁻¹ (3.1-fold).

Going from B3 to B4, the kcat/Km falls from 820 M⁻¹ s⁻¹ to 430 M⁻¹ s⁻¹ (1.9-fold).
